From PMC8761493, “New insights into the phosphorylation of the threonine motif of the β1 integrin cytoplasmic domain” (Life Science Alliance, 2022)

How the values were obtained:
[1] = Mass spectrometry-based measurement of the peptide's phosphorylation state after incubation in whole cell lysates; type: in vitro ADME; conditions: whole cell lysate in MPER with protease and phosphatase inhibitors, 4°C; read-out mass spectrometry
recombinant kindlin-2 = experiment: Streptavidin-bead peptide pull-down with recombinant protein; type: binding; conditions: N-terminally desthio biotinylated peptide on streptavidin beads; kindlin-2 2.5 nM; THD absent or present; 2 h at 4°C; Western blot
Protocol: (§1) Before use, peptides were immobilized on 25 μl Dynabeads MyOne Streptavidin C1 (10 mg/ml; Invitrogen) in Mammalian Protein Extraction Reagent (Thermo Fisher Scientific) containing protease inhibitors (cOmplete; Roche) and phosphatase inhibitors (Phosphatase Inhibitor Cocktail 2 and 3; Sigma-Aldrich) for 3 h at 4°C. Cell lysates were prepared with MPER containing protease and phosphatase inhibitors and 0.5 mg of supernatant was incubated with the peptide-coated beads at 4°C under constant rotation. For pull-downs with recombinant proteins, synthetic β1 integrin tail peptides were immobilized on 25 μl Dynabeads MyOne Streptavidin C1 (10 mg/ml; Invitrogen) for 3 h at 4°C, incubated with 2% BSA in Mammalian Protein Extraction Reagent (Thermo Scientific Scientific) for 30 min at 4°C to block unspecific binding before adding kindlin-2 or THD (conc 2.5 and 8.5 nM, respectively) and further incubation on a rotator for 2 h at 4°C. After washing the beads three times with lysis buffer, the proteins bound to the beads were eluted using Laemmli buffer, separated on a 10% SDS–PAGE, and analyzed by Western blotting.

endogenous kindlin-2 = experiment: Peptide pull-down from whole cell lysate, Western blot; type: binding; conditions: densitometry, compared with β1-WT, mean ± SD, n = 5, SD
Protocol: as §1

endogenous SNX17 = experiment: as above; type: binding; conditions: densitometry, compared with β1-WT, mean ± SD, n = 5, SD
Protocol: as §1

kindlin-2 [2] = target: T1, kindlin-2 (Homo sapiens, UniProt Q96AC1); experiment: Microscale thermophoresis (MST) affinity measurement; type: binding; conditions: compared with β1-WT tails
T1 sequence (Q96AC1 1-680): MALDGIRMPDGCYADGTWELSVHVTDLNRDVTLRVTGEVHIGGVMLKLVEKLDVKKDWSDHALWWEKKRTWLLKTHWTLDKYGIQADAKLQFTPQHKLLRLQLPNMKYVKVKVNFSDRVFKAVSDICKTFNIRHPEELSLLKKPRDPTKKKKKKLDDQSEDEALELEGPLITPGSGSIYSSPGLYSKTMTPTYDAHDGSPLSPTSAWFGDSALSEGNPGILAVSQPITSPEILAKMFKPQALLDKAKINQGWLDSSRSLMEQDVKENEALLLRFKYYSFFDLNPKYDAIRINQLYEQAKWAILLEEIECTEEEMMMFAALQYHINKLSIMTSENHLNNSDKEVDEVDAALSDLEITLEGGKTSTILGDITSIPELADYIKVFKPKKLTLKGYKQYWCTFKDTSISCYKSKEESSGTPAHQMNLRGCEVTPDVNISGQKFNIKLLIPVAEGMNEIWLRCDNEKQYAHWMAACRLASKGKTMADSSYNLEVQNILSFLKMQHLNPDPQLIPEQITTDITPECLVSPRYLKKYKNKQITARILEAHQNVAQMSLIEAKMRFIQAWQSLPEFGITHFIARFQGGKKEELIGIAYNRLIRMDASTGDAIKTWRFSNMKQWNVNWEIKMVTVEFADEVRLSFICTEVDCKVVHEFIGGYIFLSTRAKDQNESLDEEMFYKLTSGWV
Protocol: All MST measurements were performed on a Monolith NT.115 red-blue (Nanotemper) using premium-coated capillaries to reduce non-specific interaction of the proteins with the glass surface. Both interaction partners (ligand and receptor) were transferred into MST buffer (20 mM Tris, pH 7.5, 200 mM sodium chloride, 1 mM tris(2-carboxyethyl)phosphine [TCEP], 0.05% Tween-20) to avoid artifacts derived from buffer mismatches. […] The measurements were carried out at 20% light emitting diode power and 20% and 40% MST power. Data were analyzed using the MO Affinity Analysis Software (Nanotemper).

SNX17 = SNX17 (UniProt Q8BVL3); experiment: biotinylated peptide pull-down from cell lysate; conditions: reference: β1-WT tail peptide; sites T788,T789
kindlin-2 [3] = target: kindlin-2 (UniProt Q8CIB5); experiment: biotinylated peptide pull-down from cell lysate; conditions: reference: β1-WT tail peptide; sites T788,T789
[4] = target: talin-1 head domain (THD) head domain (UniProt P26039); experiment: microscale thermophoresis, Atto488-labeled peptides; conditions: reference: β1-WT tail peptide; sites T788,T789
kindlin-2 [5] = target: kindlin-2 (UniProt Q8CIB5); experiment: as above; conditions: reference: β1-WT tail peptide; sites T788,T789
[6] = target: talin-1 head domain (THD) head domain (UniProt P26039); experiment: streptavidin-bead peptide pull-down, Western blot; conditions: reference: β1-WT tail peptide; sites T788,T789
kindlin-2 [7] = target: kindlin-2 (UniProt Q8CIB5); experiment: streptavidin-bead peptide pull-down, Western blot; conditions: reference: β1-WT tail peptide; sites T788,T789

reduction of the peptide's phosphorylation after incubation in whole cell lysates [1]	affinity of kindlin-2 for the tail peptide (in words) (kindlin-2 [2])	percent of reference (SNX17)	percent of reference (kindlin-2 [3])	binding against the reference [4]	binding against the reference (kindlin-2 [5])	binding against the reference [6]	binding against the reference (kindlin-2 [7])	Molecule	pull-down of recombinant kindlin-2 (in words) (recombinant kindlin-2)	kindlin-2 binding to the peptide, reduced to (endogenous kindlin-2)	SNX17 binding to the peptide, reduced to (endogenous SNX17)
around 40%	not measurable anymore							CC[C@H](C)[C@H](NC(=O)[C@@H]1CCCN1C(=O)[C@H](CC(N)=O)NC(=O)[C@H](CCC(=O)O)NC(=O)CNC(=O)[C@@H](NC(=O)[C@H](CC(=O)O)NC(=O)[C@H](Cc1c[nH]c2ccccc12)NC(=O)[C@H](CCCCN)NC(=O)[C@H](C)NC(=O)[C@H](CC(N)=O)NC(=O)[C@H](CCSC)NC(=O)[C@H](CCCCN)NC(=O)[C@H](CCC(=O)O)NC(=O)[C@H](CCCCN)NC(=O)[C@H](CCC(=O)O)NC(=O)[C@H](Cc1ccccc1)NC(=O)[C@H](CCCCN)NC(=O)[C@H](C)NC(=O)[C@H](Cc1ccccc1)NC(=O)[C@H](CCC(=O)O)NC(=O)[C@H](CCCNC(=N)N)NC(=O)[C@H](CCCNC(=N)N)NC(=O)[C@H](CC(=O)O)NC(=O)[C@@H](N)Cc1c[nH]cn1)[C@@H](C)O)C(=O)N[C@@H](Cc1ccc(O)cc1)C(=O)N[C@@H](CCCCN)C(=O)N[C@@H](CO)C(=O)N[C@@H](C)C(=O)N[C@H](C(=O)N[C@H](C(=O)N[C@H](C(=O)N[C@H](C(=O)N[C@H](C(=O)N[C@@H](CC(N)=O)C(=O)N1CCC[C@H]1C(=O)N[C@@H](CCCCN)C(=O)N[C@@H](Cc1ccc(O)cc1)C(=O)N[C@@H](CCC(=O)O)C(=O)NCC(=O)N[C@@H](CCCCN)C(=O)O)C(C)C)C(C)C)[C@@H](C)OP(=O)(O)O)[C@@H](C)OP(=O)(O)O)C(C)C [β1-pTpT]	not	27 ± 11%	60 ± 11%
		60%	27%	same	lost	same	lost	β1 integrin (cytoplasmic tail, β1-tail) cytoplasmic tail (from UniProt P09055) β1-pTpT tail peptide			
